According to patent US20240189423A1:

What was measured:
[1] = target: tumor-associated calcium signal transducer 2 (TROP2) (UniProt P09758); experiment: cell-based or functional assay
[2] = target: human epidermal growth factor receptor 2 (HER2) (human) (UniProt P04626); experiment: cell-based or functional assay

Sequence of tumor-associated calcium signal transducer 2 (TROP2) (P09758 27-323 limits assumed): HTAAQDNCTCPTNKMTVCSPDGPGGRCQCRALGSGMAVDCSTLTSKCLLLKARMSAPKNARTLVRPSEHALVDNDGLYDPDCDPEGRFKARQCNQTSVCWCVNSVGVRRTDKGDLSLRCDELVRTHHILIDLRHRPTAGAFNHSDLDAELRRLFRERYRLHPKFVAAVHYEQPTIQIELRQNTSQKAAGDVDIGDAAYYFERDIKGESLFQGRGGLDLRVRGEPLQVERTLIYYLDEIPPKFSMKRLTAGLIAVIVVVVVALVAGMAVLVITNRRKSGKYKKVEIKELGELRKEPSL

| Substance | Dmax (%), TROP2, MCF7 [1] [%] | IC50 of cell viability, modified MTT assay, MDA-MB-175VII cells, 5 days [2] [nM] | IC50 of cell viability, modified MTT assay, SK-BR-3 cells, 5 days [2] [nM] |
| --- | --- | --- | --- |
| CXCL12-Sacituzumab (bispecific antibody) | 51 |  |  |
| CXCL12-Trastuzumab (bispecific antibody) |  | 86.8 | 199 |
